How the values were obtained:
Nucleocapsid protein N [1] = target: T1, Nucleocapsid protein N (SARS-CoV-2, UniProt P0DTC9 1-419); experiment: EMSA; conditions: protein: recombinant; tags: N-terminal His6-TEV, tag removed; chain copies: 2; single strand
Nsp3 Ubl1 [2] = target: T2, Nsp3 Ubl1 (SARS-CoV-2, UniProt P0DTD1 819-929); experiment: EMSA; 3.8 uM Ubl1; conditions: protein: recombinant; tags: His tag removed by thrombin; single strand
Nucleocapsid protein N [3] = target: T1, Nucleocapsid protein N; experiment: EMSA; 3.8 uM N, 2.5 uM DNA; displaced by Ubl1; conditions: protein: recombinant; tags: N-terminal His6-TEV, tag removed; chain copies: 2; single strand
Nsp3 Ubl1 [4] = target: T2, Nsp3 Ubl1; experiment: MST; Ubl1 1, 5, 10 uM; conditions: protein: recombinant; tags: His tag removed by thrombin; label: 5'-Cy5; single strand
Nucleocapsid protein N [5] = target: T1, Nucleocapsid protein N; experiment: MST; no Ubl1; 40 nM RNA; conditions: protein: recombinant; tags: N-terminal His6-TEV, tag removed; chain copies: 2; label: 5'-Cy5; single strand

Row | Binder | binding result (Nucleocapsid protein N [1]) | binding result (Nsp3 Ubl1 [2]) | binding result (Nucleocapsid protein N [3]) | binding result (Nsp3 Ubl1 [4]) | Kd (Nucleocapsid protein N [5])
1 | UGUUCUCUAAACGAACU (ssRNA) [17-mer TRS ssRNA] | binds | no binding |  |  | 
2 | TGTTCTCTAAACGAACT (ssDNA) [17-mer TRS ssDNA] |  | no binding | binds |  | 
3 | UCUAAACGAAC (ssRNA) [11-mer TRS ssRNA] |  |  |  | no binding | 5.1 ± 0.6 µM
